Source: patent US20160272977, “DNMT Inhibitors” (New England Biolabs, Inc., published 2016)

T1: GST-DNMT1 fragment 4 (Homo sapiens, UniProt P26358 SEQ:1081-1408)
T1 chain: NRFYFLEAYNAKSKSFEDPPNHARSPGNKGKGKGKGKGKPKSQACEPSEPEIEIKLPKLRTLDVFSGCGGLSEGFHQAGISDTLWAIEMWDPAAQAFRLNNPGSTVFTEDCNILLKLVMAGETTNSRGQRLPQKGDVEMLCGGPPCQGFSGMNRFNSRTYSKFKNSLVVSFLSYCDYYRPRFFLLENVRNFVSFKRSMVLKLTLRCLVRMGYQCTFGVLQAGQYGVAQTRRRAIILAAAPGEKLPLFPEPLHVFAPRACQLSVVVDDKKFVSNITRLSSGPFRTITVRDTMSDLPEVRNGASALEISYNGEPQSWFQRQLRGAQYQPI


Key:
DNMT1 full-length [1] = biological target: T2, DNMT1 full-length (Homo sapiens, UniProt P26358 SEQ:1-1616); test: inhibition; competitive vs hemimethylated DNA; conditions: tags: baculovirus Sf9
T2 sequence (P26358 whole entry): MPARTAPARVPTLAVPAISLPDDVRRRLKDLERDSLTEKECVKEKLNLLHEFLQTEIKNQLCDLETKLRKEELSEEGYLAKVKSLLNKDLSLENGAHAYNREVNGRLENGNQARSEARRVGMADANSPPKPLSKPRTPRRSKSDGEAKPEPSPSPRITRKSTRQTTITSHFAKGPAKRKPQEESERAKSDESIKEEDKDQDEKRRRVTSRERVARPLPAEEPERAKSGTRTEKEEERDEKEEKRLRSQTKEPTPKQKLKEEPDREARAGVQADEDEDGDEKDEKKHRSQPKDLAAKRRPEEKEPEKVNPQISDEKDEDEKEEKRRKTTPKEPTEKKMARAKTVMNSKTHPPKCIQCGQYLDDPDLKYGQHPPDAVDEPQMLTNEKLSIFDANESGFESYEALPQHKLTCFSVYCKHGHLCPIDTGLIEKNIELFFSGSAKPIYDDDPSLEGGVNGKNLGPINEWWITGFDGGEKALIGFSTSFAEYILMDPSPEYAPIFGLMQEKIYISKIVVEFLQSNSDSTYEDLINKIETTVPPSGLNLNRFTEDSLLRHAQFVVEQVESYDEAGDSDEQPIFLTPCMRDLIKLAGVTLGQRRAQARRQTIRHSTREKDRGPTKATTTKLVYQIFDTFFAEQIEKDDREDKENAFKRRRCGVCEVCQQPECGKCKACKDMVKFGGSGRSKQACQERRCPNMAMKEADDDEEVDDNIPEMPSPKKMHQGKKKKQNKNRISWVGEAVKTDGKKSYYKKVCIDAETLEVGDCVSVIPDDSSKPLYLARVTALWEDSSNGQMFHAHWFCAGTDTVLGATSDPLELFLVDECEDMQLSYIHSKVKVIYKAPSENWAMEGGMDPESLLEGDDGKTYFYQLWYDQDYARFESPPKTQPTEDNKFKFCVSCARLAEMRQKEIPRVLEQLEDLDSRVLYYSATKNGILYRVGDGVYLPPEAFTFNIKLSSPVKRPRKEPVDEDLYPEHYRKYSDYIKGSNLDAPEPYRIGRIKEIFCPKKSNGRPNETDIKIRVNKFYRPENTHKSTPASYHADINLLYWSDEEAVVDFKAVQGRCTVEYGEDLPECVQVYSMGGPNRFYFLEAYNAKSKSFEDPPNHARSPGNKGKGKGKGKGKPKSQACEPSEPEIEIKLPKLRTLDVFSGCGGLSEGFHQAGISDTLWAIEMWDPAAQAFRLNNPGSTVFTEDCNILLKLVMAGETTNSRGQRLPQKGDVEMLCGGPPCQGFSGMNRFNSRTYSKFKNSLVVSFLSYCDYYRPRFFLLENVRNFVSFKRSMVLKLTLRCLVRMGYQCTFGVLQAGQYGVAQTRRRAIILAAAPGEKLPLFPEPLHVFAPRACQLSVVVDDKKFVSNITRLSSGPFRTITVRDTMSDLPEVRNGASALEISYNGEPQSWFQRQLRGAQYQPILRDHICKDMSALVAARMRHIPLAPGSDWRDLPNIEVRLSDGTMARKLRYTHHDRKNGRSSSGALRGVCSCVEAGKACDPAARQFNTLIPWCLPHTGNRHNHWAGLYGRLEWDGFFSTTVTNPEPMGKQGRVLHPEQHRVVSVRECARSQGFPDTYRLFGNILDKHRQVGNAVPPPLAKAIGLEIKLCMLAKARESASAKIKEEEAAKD

DNMT1 full-length [2] = biological target: T2, DNMT1 full-length; test: inhibition; competitive vs hemimethylated DNA, 37 C; conditions: tags: baculovirus Sf9
GST-DNMT1 fragment 4 [3] = biological target: T1, GST-DNMT1 fragment 4; test: pulldown; GST pull-down, 33P RNA, 37 C; lower than HPE variant; conditions: tags: N-terminal GST (pGEX-5x-1); label: 5'-33P in pull-down; stem-loop
Excerpt: (§1) The resulting protein bands are shown in FIG. 1B; asterisks mark the positions of the GST-DNMT1 fusion proteins. GST-DNMT1 fragments were adjusted to the same protein concentration with 50% slurry sepharose beads. RNase inhibitor (New England Biolabs, Ipswich, Mass.) was applied to beads slurry at 40 U/mL immediate before use.
(§2) The GST-DNMT1 fragments exposed to a series of small RNA molecules are depicted in FIG. 1D. The RNA oligos were labelled at the 5′ end with [γ-33P]ATP (PerkinElmer, Waltham, Mass.) using T4 polynucleotide kinase (New England Biolabs, Ipswich, Mass.), and purified with Illustra® ProbeQuant® G-50 Micro Columns (GE Healthcare Life Sciences, Piscataway, N.J.) per the manufacturer's instructions. The binding assay was performed in 50 μL reaction volume containing 20 μL of GST-DNMT1 fragment beads, 5 μL of 5 μM labelled RNA oligo, 5 μL of 10×DNMT1 reaction buffer (New England Biolabs, Ipswich, Mass.) and 20 μL of RNase-free water. After incubation at 37° C. for 10 minutes, beads were washed twice and suspended in 200 μL of PBS. The radioactivity associated with the beads was analyzed by liquid scintillation counting using a Tri-Carb® 2900TR (PerkinElmer, Waltham, Mass.). The amount of RNA oligo bound to beads were calculated by normalizing the scintillation counts of beads to that of 1 pmol labelled RNA oligo.

GST-DNMT1 fragment 4 [4] = biological target: T1, GST-DNMT1 fragment 4; test: pulldown; most efficient binder of the four; conditions: tags: N-terminal GST (pGEX-5x-1); label: 5'-33P in pull-down; predicted to lack stem-loop
Excerpt: as §1, §2

GST-DNMT1 fragment 4 [5] = biological target: T1, GST-DNMT1 fragment 4; test: pulldown; greater than asCEBPα-1; conditions: tags: N-terminal GST (pGEX-5x-1); label: 5'-33P in pull-down
Excerpt: as §1, §2

DNMT1 full-length [6] = biological target: T2, DNMT1 full-length; test: inhibition; mixed inhibition vs AdoMet; conditions: tags: baculovirus Sf9
Protocol: For determination of the inhibition pattern and Kᵢ of asCEBPα-2 versus hemimethylated DNA substrate, 20 nM of the DNMT1 enzyme was incubated with 1.328, 0.884, 0.59, 0.394, 0.262, 0.1748 and 0.1168 μM (concentration calculated in terms of hemimethylated CpG) of the 36-bp length hemimethylated DNA substrate with the sequence of (CMeGG•CCG)₁₂ and 5.328 μM of [³H]AdoMet (PerkinElmer, Waltham, Mass.) in the presence of 0, 0.25, 0.5, 1, 2 and 4 μM folded asCEBPα-2 inhibitor RNA in 1×DNMT1 reaction buffer (New England Biolabs, Ipswich, Mass.). The reaction was performed at 37° C. for 30 minutes and DNMT1 enzyme was quenched by flash freezing the reaction mix in a dry ice-methanol bath. The reaction was split into two halves and spotted onto DE81 Whatman® 3658-325 ion exchange filter papers (GE Healthcare Life Sciences, Piscataway, N.J.). The Ki and velocity plots were calculated according to Bacolla, et al., J. Biol. Chem., 274:33011-33019 (1999).
For determination of the inhibition patterns of various test RNAs and Kᵢ for asCEBPα-2 versus AdoMet, reactions were carried out at similar conditions as those described above. […] The nanomolar [³H]CH₃ transferred to hemimethylated DNA substrate was calculated in the same way as in the competitive experiment versus hemimethylated DNA substrate, except that the nanomolar concentration obtained was multiplied by an coefficient of 19.5. […]

GST-DNMT1 fragment 4 [7] = biological target: T1, GST-DNMT1 fragment 4; test: pulldown; lower than HPE variant; conditions: tags: N-terminal GST (pGEX-5x-1); label: 5'-33P in pull-down; stem-loop
Excerpt: as §1, §2

DNMT1 full-length [8] = biological target: T2, DNMT1 full-length; test: inhibition; competitive vs hemimethylated DNA; conditions: tags: baculovirus Sf9; remark: listed apart in the source
Protocol: Single point biochemistry assays were performed by incubating 10 nM of the DNMT1 enzyme with 1 μM of hemimethylated DNA and 5.328 μM of [³H]AdoMet in the presence of 5.28 μM of folded synthetic RNA oligos. The reaction was done for 15 minutes and radioactivity was counted. [³H]AdoMet incorporation, initial velocity curve and Kᵢ were calculated as described in Example 2.
FIGS. 7C and 7D are representative plots of the inhibitory activity of 5p-5 and 3p-5 at increasing concentrations.

[9] = label: 5'-33P in pull-down, stem-loop

| Binder | Ki (DNMT1 full-length [1]) [nM] | also measured |
| --- | --- | --- |
| UCGGAUCCGUCUGAGCUUGGCU (ssRNA) [miR-127-3p] | 269 | – |
| UUAAUGCUAAUCGUGAUAGGGGU (ssRNA) [miR-155-5p] | – | Ki (DNMT1 full-length [2]): 27.9 nM |
| UAAAGUGCUUAUAGUGCAGGUAG (ssRNA) [miR-20a-5p] | 560 | – |
| CCGGGACGCAGGCGGCGUCAGGC (ssRNA) [asCEBPα-1] | – | binding result (GST-DNMT1 fragment 4 [3]): binds; Ki (DNMT1 full-length [1]; [9]): 2000 nM |
| AUAAAGCUAGAUAACCGAAAGU (ssRNA) [miR-9-3p] | 1600 | – |
| GACAGUGGAGAGGGGCGGAGCGG (ssRNA) [asCEBPα-2HPE] | – | binding result (GST-DNMT1 fragment 4 [4]): binds; Ki (DNMT1 full-length [1]; label: 5'-33P in pull-down, predicted to lack stem-loop): 135 nM |
| CCGGGAAGCAGGCGGCGUCAGGC (ssRNA) [asCEBPα-1HPE] | – | binding result (GST-DNMT1 fragment 4 [5]): binds; Ki (DNMT1 full-length [1]; label: 5'-33P in pull-down): 918 nM |
| GCCAGUGGCGAGGGGCGGCGCGG (ssRNA) [asCEBPα-2] | – | Ki (DNMT1 full-length [6]; [9]): 91.7 nM; Ki (DNMT1 full-length [1]; [9]): 434 nM; binding result (GST-DNMT1 fragment 4 [7]): binds |
| UCGUGAUAGGGGU (ssRNA) [5p-5] | – | Ki (DNMT1 full-length [8]): 124 nM |
| GUCCAGUUUUCCCAGGAAUCCCU (ssRNA) [miR-145-5p] | 2460 | – |
| UGUGCAAAUCCAUGCAAAACUGA (ssRNA) [miR-19b-3p] | 3320 | – |
| ACUCAAAAUGGGGGCGCUUUCC (ssRNA) [miR-373-5p] | 298 | – |
| UAGCAGCACGUAAAUAUUGGCG (ssRNA) [miR-16-5p] | 463 | – |
| UCUUUGGUUAUCUAGCUGUAUGA (ssRNA) [miR-9-5p] | 493 | – |
| CAAAGUGCUUACAGUGCAGGUAG (ssRNA) [miR-17-5p] | 317 | Ki (DNMT1 full-length [6]): 385 nM |
| AGGUUGGGAUCGGUUGCAAUGCU (ssRNA) [miR-92a-1-5p] | 476 | – |
| UGAGAACUGAAUUCCAUGGGUU (ssRNA) [miR-146a-5p] | 1030 | – |
| UAUUGCACUUGUCCCGGCCUGU (ssRNA) [miR-92a-3p] | 1650 | – |
| UAGCUUAUCAGACUGAUGUUGA (ssRNA) [miR-21-5p] | 1290 | – |
